Source: patent publication US20260242483A1 (IMCHECK THERAPEUTICS, published 2026)
Changes are numbered by the printed parent chain. Numbers in names are those of the source. Values belong to the binder of their own block, whether it stands above or below them.

How the values were obtained:
[1] = molecular target: T1, recombinant human BTN3A1-His (Sino Biological Cat. No. 15973-H08H) (human, UniProt O00481 30-254); assay: SPR Biacore single cycle kinetics; BTN3A1-His captured via anti-His, F(ab′)2 analyte, bivalent analyte fit
T1 construct: Bought protein; also called BTN3A1 His-tagged antigen; CD277; not shown: C-terminal His tag
Experimental: (§1) All single cycle kinetic experiments were run at 25° C. with HBS-P+ running buffer (pH 7.4) containing 0.1% BSA (GE Healthcare, Little Chalfont, UK).
(§2) BTN3A1 His-tagged antigen (Sino Biological, Beijing, China) was diluted in running buffer to a final concentration of 0.4 μg/ml. At the start of each cycle, BTN3A1-His was captured onto Fc2 of CM5 sensor chip pre-coupled using a His capture kit (GE Healthcare, Little Chalfont, UK) with standard amine chemistry at a flow rate of 10 μl/min. An immobilization level (RL) of ~34 RU, 16 RU or 11 RU, the different theoretical values to obtain a RMax of ~50 RU was used for the analytes Fab, F(ab′) 2 and IgG respectively. The surface was then allowed to stabilize. Single cycle kinetic data was obtained with the purified samples (Fab, F(ab′)₂ and IgG) at a flow rate of 40 μl/min to minimize any potential mass transfer effects. The signal from the reference channel Fc1 (no antigen capture) was subtracted from that of Fc2 to correct for differences in non-specific binding to the reference surface. […] The association phase for the five injections of increasing concentrations was monitored for 240 seconds each time and a single dissociation phase was measured for 1400 seconds following the last injection of analyte. […] The kinetic constants were calculated for each variant (see Tables 10, 11 and 12).

[2] = molecular target: T1, recombinant human BTN3A1-His (Sino …); assay: SPR Biacore single cycle kinetics; BTN3A1-His captured via anti-His, IgG analyte, bivalent analyte fit
Experimental: as §1
BTN3A1 His-tagged antigen (Sino Biological, Beijing, China) was diluted in running buffer to a final concentration of 0.4 μg/ml. At the start of each cycle, BTN3A1-His was captured onto Fc2 of CM5 sensor chip pre-coupled using a His capture kit (GE Healthcare, Little Chalfont, UK) with standard amine chemistry at a flow rate of 10 μl/min. An immobilization level (RL) of ~34 RU, 16 RU or 11 RU, the different theoretical values to obtain a RMax of ~50 RU was used for the analytes Fab, F(ab′) 2 and IgG respectively. The surface was then allowed to stabilize. Single cycle kinetic data was obtained with the purified samples (Fab, F(ab′)₂ and IgG) at a flow rate of 40 μl/min to minimize any potential mass transfer effects. The signal from the reference channel Fc1 (no antigen capture) was subtracted from that of Fc2 to correct for differences in non-specific binding to the reference surface. The signal for BTN3A1-His blank runs (no analyte) were subtracted to correct for differences in surface stability. The association phase for the five injections of increasing concentrations was monitored for 240 seconds each time and a single dissociation phase was measured for 1400 seconds following the last injection of analyte. Regeneration of the chip surface was conducted using two injections of 10 mM glycine-HCL pH 1.5 followed by a stabilization period of 240 seconds. Raw sensorgrams were fitted with a 1:1 model for Fab samples and with a bivalent analyte model for F(ab′)₂ and IgG samples in agreement with the different valences of the analytes. The kinetic constants were calculated for each variant (see Tables 10, 11 and 12).

[3] = molecular target: T1, recombinant human BTN3A1-His (Sino …); assay: SPR Biacore single cycle kinetics; BTN3A1-His captured via anti-His, IgG analyte, bivalent analyte fit (Kd 1)
Experimental: as §1, §2

[4] = molecular target: T1, recombinant human BTN3A1-His (Sino …); assay: SPR Biacore single cycle kinetics; BTN3A1-His captured via anti-His, IgG analyte, bivalent analyte fit (Ka1)
Experimental: as §1, §2

[5] = molecular target: T1, recombinant human BTN3A1-His (Sino …); assay: SPR Biacore multi-cycle kinetics; antibody captured on Protein A, BTN3A1-His analyte, 1:1 fit
[6] = molecular target: T2, BTN3A3-CFP on HEK293T BTN3KO cells (human, UniProt O00478 30-584); assay: flow cytometry on HEK293T BTN3KO transiently transfected with BTN3A3-CFP, gated CFP+ (n = 5)
T2 construct: Transient transfection of BTN3A knock-out HEK293T; also called HEK293T BTN3KO + 3A3-CFP; not shown: CFP fusion partner

[7] = molecular target: T3, BTN3A1-CFP on HEK293T BTN3KO cells (human, UniProt O00481 30-513); assay: flow cytometry on HEK293T BTN3KO transiently transfected with BTN3A1-CFP, gated CFP+ (n = 4)
T3 construct: Transient transfection of BTN3A knock-out HEK293T; also called HEK293T BTN3KO + 3A1-CFP; not shown: CFP fusion partner

[8] = molecular target: T4, BTN3A2-CFP on HEK293T BTN3KO cells (human, UniProt P78410 30-334); assay: flow cytometry on HEK293T BTN3KO transiently transfected with BTN3A2-CFP, gated CFP+ (n = 5)
T4 construct: Transient transfection of BTN3A knock-out HEK293T; also called HEK293T BTN3KO + 3A2-CFP; not shown: CFP fusion partner
T4 sequence (P78410 30-334): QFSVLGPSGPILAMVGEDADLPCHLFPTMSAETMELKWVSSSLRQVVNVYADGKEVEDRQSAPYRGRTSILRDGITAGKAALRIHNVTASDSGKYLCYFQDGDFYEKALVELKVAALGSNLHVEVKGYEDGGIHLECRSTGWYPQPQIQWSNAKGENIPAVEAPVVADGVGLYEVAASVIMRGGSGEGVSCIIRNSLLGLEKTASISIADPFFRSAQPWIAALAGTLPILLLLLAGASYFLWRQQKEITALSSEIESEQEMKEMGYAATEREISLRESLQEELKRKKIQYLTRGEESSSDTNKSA

T1 sequence (O00481 30-254 limits assumed): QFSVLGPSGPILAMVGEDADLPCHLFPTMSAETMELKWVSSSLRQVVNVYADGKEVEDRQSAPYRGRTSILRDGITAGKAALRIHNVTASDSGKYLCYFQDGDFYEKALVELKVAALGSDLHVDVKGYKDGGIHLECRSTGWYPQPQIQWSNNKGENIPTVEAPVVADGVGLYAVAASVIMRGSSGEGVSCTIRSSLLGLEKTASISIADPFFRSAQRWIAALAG
T2 sequence (O00478 30-584): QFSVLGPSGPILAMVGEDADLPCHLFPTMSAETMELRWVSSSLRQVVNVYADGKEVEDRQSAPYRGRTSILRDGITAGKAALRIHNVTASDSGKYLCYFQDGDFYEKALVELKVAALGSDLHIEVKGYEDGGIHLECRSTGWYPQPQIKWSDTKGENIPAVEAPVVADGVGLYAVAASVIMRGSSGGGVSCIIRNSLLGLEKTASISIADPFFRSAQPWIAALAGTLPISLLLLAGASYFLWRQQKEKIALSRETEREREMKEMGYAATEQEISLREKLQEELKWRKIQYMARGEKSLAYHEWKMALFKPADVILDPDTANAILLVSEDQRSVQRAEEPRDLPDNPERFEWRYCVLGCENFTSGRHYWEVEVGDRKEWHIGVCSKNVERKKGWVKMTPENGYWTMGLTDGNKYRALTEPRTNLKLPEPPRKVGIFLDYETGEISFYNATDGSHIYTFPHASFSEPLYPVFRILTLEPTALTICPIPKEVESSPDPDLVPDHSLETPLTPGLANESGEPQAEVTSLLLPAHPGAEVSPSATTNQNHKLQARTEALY
T3 sequence (O00481 30-513): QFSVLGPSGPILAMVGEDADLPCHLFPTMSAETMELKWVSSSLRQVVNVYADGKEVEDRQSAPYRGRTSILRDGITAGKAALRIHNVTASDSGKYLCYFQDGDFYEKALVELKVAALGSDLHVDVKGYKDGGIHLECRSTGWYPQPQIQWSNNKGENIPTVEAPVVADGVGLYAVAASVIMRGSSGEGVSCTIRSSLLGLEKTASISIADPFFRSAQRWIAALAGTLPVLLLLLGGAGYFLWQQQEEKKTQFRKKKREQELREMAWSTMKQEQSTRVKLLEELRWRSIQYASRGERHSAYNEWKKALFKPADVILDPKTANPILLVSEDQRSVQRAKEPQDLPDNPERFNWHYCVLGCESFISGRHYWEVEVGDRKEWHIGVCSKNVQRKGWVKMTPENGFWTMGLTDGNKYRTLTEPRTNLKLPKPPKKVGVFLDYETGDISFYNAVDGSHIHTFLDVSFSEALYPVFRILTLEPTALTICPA

B1: 7.2 VH2/VK1 F(ab′)2 (other)
heavy: QVQLVQSGAEVKKPGASVKLSCKASGYIFTRYYMYWVKQRPGQGLEWIGEINPNNGGTKFNEKFKNRATLTVDKSISTAYMELSRLRSDDTAVYYCSREDDYDGTPFAMDYWGQGTLVTVSS
light: not shown
notes: not shown: IgG4 CH1 and hinge up to the pepsin cleavage site
- Kd 2 [1]: 32.4 s⁻¹

B2: 7.2 VH2/VK2 F(ab′)2 (other)
heavy: B1 heavy
light: not shown
notes: as for B1
- Kd 2 [1]: 54.6 s⁻¹

B6: mAb1 (antibody, human IgG1, kappa)
heavy: QVQLVQSGAEVKKPGASVKLSCKASGYIFTRYYMYWVKQRPGQGLEWIGEINPNNGGTKFNEKFKNRATLTVDKSISTAYMELSRLRSDDTAVYYCSREDDYDGTPFAMDYWGQGTLVTVSSASTKGPSVFPLAPSSKSTSGGTAALGCLVKDYFPEPVTVSWNSGALTSGVHTFPAVLQSSGLYSLSSVVTVPSSSLGTQTYICNVNHKPSNTKVDKRVEPKSCDKTHTCPPCPAPEFEGGPSVFLFPPKPKDTLMISRTPEVTCVVVDVSHEDPEVKFNWYVDGVEVHNAKTKPREEQYNSTYRVVSVLTVLHQDWLNGKEYKCKVSNKALPASIEKTISKAKGQPREPQVYTLPPSREEMTKNQVSLTCLVKGFYPSDIAVEWESNGQPENNYKTTPPVLDSDGSFFLYSKLTVDKSRWQQGNVFSCSVMHEALHNHYTQKSLSLSPG
light: not shown
notes: Humanized 7.2 (VH2/Vk1), silent IgG1 L247F/L248E/P350S, kappa; also called 7.2 VH2/VK1 IgG1; IgG1 7.2 VH2/VK1
- Kd 2 [2]: 44 s⁻¹
- EC50 [6]: 1.75 µg/mL
- EC50 [7]: 2.4 µg/mL
- EC50 [8]: 1.88 µg/mL

Results, then the binder that gave them:

- Kd 2 [2]: 8.6e-05 s⁻¹
- koff [3]: 0.00379 s⁻¹
- kon [4]: 56300 M⁻¹ s⁻¹
B3: mAb3 (antibody, V domains shown)
VH: QVQLVQSGAEVKKPGASVKVSCKASGYTFNGYYIHWVRQAPGQGLEWMGWINSNSGGTKYAQKFQGRVTMTRDTSISTAYMELSRLRSDDTAVYYCARRHSDMIGYYYGMDVWGQGTTVTVSS
VL: DIQMTQSPSSVSASVGDRVTITCRASQGISSWLAWYQQKPGKAPKLLIYAASSLQSGVPSRFSGSGSGTDFTLTISSLQPEDFATYYCQQATDFPPTFGGGTKVEIKR

- Kd [5]: 0.319 nM
B4: mAb6 (antibody, V domains shown)
VH: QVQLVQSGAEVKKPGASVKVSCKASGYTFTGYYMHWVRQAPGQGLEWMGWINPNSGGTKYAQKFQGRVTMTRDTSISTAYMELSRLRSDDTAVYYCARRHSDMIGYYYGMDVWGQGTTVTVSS
VL: B3 VL with V11L, G28S, S31L, W32F, A34N, A50T, T92N, D93S, E105D

- Kd [5]: 0.176 nM
B5: Chimeric 7.2 (VH0/Vκ0) (antibody, V domains shown)
VH: QVQLQQSGAELVKPGASVKLSCKASGYIFTRYYMYWVKQRPGQGLEWIGEINPNNGGTKFNEKFKNKATLTVDKFSSTAYMQLRSLTSEDSAVYYCSREDDYDGTPFAMDYWGQGTSVTVSS
VL: DIQMNQSPSSLSASLGDTITITCHASQNINVWLSWYQQKPGNIPKLLIYKASNLHTGVPSRFTGSGSGTGFTLTISSLQPEDIATYYCQQGQTYPYTFGGGTKLEIK
notes: not used; also called 7.2 VH0/Vk0; chimeric 7.2 antibody

- Kd 2 [2]: 0.0241 s⁻¹
B7: mAb2 (antibody, human IgG1, kappa)
heavy: B6 heavy
light: not shown
notes: Humanized 7.2 (VH2/Vk2), silent IgG1 L247F/L248E/P350S, kappa; also called 7.2 VH2/VK2 IgG1; IgG1 7.2 VH2/VK2
